Assay: soluble on expression in E. coli; label from the status in PepcDB or PDB records

Soluble on expression in E. coli, soluble:
MSLTAPLPYTRAANLPALLRERILILDGAMGTMIQRYKLTEAQYRGERFASHPVDVKGNNELLLLTRPEVIREIHEQYLAAGADLIETNTFGATTVAQEDYKMAELAYEMNVVAARLAREACDKYSTPDKPRFVAGAFGPTPKTASISPDVNDPGARNISFDQLRDAYYEQGKALLEGGADVFLVETIFDTLNAKAALFAIDQLFEDSGERVPVMISGTVTDASGRILSGQTVEAFWNSLRHAKPITFGLNCALGAALMRPYIAELAKICDTAVSCYPNAGLPNPMSDTGFDETPEVTSSLVDEFAAAGLVNLVGGCCGTTPEHIRAIAERVAQRKPRAWPGQYREAAEGHHHHHH
GPLGSAGKSSLFKIILLGDGGVGKSSLMNRYVTNKFDSQLFHTIGVEFLNKDLEVDGHFVTMQIWDTAGQERFRSLRTPFYRGSDCCLLTFSVDDSQSFQNLSNWKKEFIYYADVKEPESFPFVILGNKTDIKERQVSTEEAQAWCKDNGDYPYFETSAKDSTNVAAAFEEAVRRILAT
AIASSLVYPVSQSYHYLSTSNNRLFSAVPSEEKSNKEVKGKAQETSKENTSPATLQDSFGFQLKTGTPDRMPSSFDQATGSERAELEDPDLYRNPEKYVNSRVMIAPFGTKEKPLLIPSRYDSRIIGCTGREAPNDHGVYYMTVKENHDKVCPLCGQVFRLKKVAGGEEASHHHHE
MSRKIPKEPTTRPAFNAYEKHVRDINNFVIPYQRENKYKKVVGETDLDVLKREYRFIRESEEEDAKSWETRLARRHYERLYKDYAIAELSQWREGSVGFRWLNQTEVLQGKGYSCCAATDCDSASELNTFEVPFTYEEDGETKATLVKVRLCRSCQVKMRESYRIAREKLK
MSLVSYVEVIKNGETISSCFQPFQKNENYGTITSANEQITPVIFHNLIMDMVLPKVVPIKGNKVTKMSMNLIDGFDCFYSTDDHDPKTVYVCFTLVDMPKILPIRILSGLQEYESNATNELLSSHVGQILDSFHEELVEYRNQTLNSSGNGQSSNGNGQNTISDIGDATEDQIKDVIQIMNDNIDKFLERQERVSLLVDKTSQLNSSSNKFRRKAVNIKEIMWWQKVKNITLLTFTIILEGHHHHHH

Soluble on expression in E. coli, not soluble:
MAILIELQDICVDFEQRRVLDNIRLTLTKGNITTLIGPNGAGKSTLVKVILGLQSLSSGKIIRQSGIRIGYVPQKLKLNDTLPLTVNRFLKLAGRFSTQELSEALRLVGGEHLQSSDMHKLSGGETQRVLLARALLQRPDLLVLDEPAQGVDVQGQIDLYDLIHTLRNRFGCAVLMVSHDLHLVMAKTDEVICLQHHVCCSGSPESIAKHPSYLAMFGHRSRDTLAFYQHHHEHHHHDLSGLPVKGKASVCSHHSHGHHKHD
MSLSRLILIESNKNTRGTPWISIPVRNGVFEYDFYTDHEKAYELICWDDLLNGCWYPVTFFAENGTVSFTISAIDARPPYRIETLNSLTTALRLFEAEGKDKFSFDELNARRDTLEKYGRFESEAMQALWKKFDQVKDNPEERNKLFRERDRLEESGEAFTKEAKALIKEREQLFRKKVIWETEQASQHPSLVGLFILKMKVENARKDEDVTPYLEAFQKVYASRYPEHPYTREMQMFIDNNQPKTGNRFIDFSAPDLNGNMVQLSEQIRGKVALIDLWASWCGPCRTTSKQLIPIYEKYKDRGFTVIGVAREQNSDIRMREAIRKDGYPWLNLIELNDVQQIWSKYRIPNAAGGTFLVNAQGIILAVNPTAEEVERILQKELEGHHHHHH
MDPELQAIREARLAQLKNNSGGTNGDRNSGANNGGGENSAPVGAAIANFLEPQALERLSRVALVRRDRAQAVETYLKKLIATNNVTHKITEAEIVSILNGIAKQQNSQNNSKIIFERKDFSEDLNSFDKQNAKN
MAHHHHHHMHSSPSKKKDLSNGACPAKEKEASKRKQSFNDVELEIDDDIITHLSSRICNKNVTHKILKINNLIDDQMHDYIANGRASEISESNDESDAHEGVERAHLNLRNGYAGCQHGDESSSNTISNDLPERKAISSEQVPTYELNKEVQGKSKAKGKGKGKGELLSDDPHLEEPLAEGHTHFDRIKMMNLLGENTIVYNSRDDQNNVLFLCYDEKSEQCDVCDRYRKNYMSNMHPSSCVPLRGGAAMKGDAAINGNAPINGVAATNGAAAINGTAAIDALSDYFFVLGSTSNSRKYILKQSSLDFLSVRIHIDEKKIGCRKSHDPLTLTANIAVGKGLKLLNMIKTDSELSKQIAELSKGKKVVLLVGDEVIYCNNKIYEKPKNEKEASNFLKSYNNSKCYSYSSITLIELETEKIITGIDESIINVYDMDDSVVKKILDDSSIYFCAGALKIENTHMHRYIKVIKGNIDSIFGLSLNLLFHLVNFL
MGSDKIHHHHHHLAQLYFYYSSMNAGKSTSLLQSSYNYRERGMNTLVMTASIDDRYGKGKVASRIGIETEAQVFSSQDDLTQMISDVHQATPLSCVLVDECQFLSKEQVKQLTHVVDNIDIPVLCYGLRTDFQGELFSGSHYLLAWADKLVELKTICHCGRKANMVVRLDGDGKVMREGEQVAIGGNESYESVCRKHFREFIWD
MPIADTVTLNSGYEMPVIGYGTWQLPKNLAAERVRDALEAGYRHIDSALSFKNQEEVAAGIKDWCKIRKVRREELFLSSKIWNTYHSRNRCMQQIDEMLEIFETTYMDLIVIHWPFGWAEDEPPGERGLWPRGANGKMRYSDVDYLETWKALEDAHRSGKIRSIGLANFNIGQVEQVWTKGLIKPAVLQVEMNPFLDQEEIRQFCREKGIILTAFMLTGNPGSALYRKHEDPNLLYNETLQSIAKGHGKSVVQVLVRWAIDLRTTALVKSSESKRIRQNINIFKFRLTSQEIARIKALNIDFRILNPLLGNYDHPYFPWPHVQEEQLPQKVEEPDPENL
MSLRQRFVLDTTAITDAGLRIKEGYESLCESAAEVLDLIALARLKLDISCYIPYPSVYTELTSFLKRYGCDEEIFTKLDTWLVKKTPNRYEVKIPAAIFYEYIITVRQKMNRGRRLAEEYILESSAITAKLEDKSKIEEEIGALISKFRDKYRAVMRQGILDSAPDLDVLLLAKELEAGVVSSDAGIRKWSERLGLRFVEAAKFPRMLKEYLKLMGSKDIVGWFESEEDEGHHHHHH
MKVSILDYGVIDKEKTPQEALLETRCLAQVADKLGFHRFWVAEHHNIYAFAISSPELLMMHLADHTKQIRIGSGGIMPLHYSSFKIAEWIMTLEALHPNRIDLGIGNSLGTTLVQRALSSIHCKDSYSQVVTELYQYLNPDHLSPLPIFVNPRGNTYPQIWTLSNSLETAELAGQLGLGYTFGIFPYIPKDPITEAKRVSAHYRKAFRPSKLLKIPKLILAVFIVLSDTDEKAEALAKPLDIWMLGQQDFNEFKTYPDVEEARNYHLTEKQREAIAANRSRMVIGSPHTVKKQLDRLIEACQADELLAIPLVPEFANRQRTLELLADLYVTI
MSSETFYKTQQDLRKAESHASHAAGGNTPANSNVSAMKVTPNLLIQFGDTAANSTNQSIVDEHTDKAKAIEERKANLPLPDQPPVASDWQSADQRAVNVGSGGVQGSVSGESNTALRDPATAGSSARMSGEELHKETQPTGNVGRQATEGLSDIPGDAKARK
MKIQCDVCEKAPATLICCADEAALCAKCDVEVHAANKLASKHQRLFLDSLSTKFPPCDICLEKAAFIFCVEDRALLCRDCDEATHAPNTRSANHQRFLATGIRVALSSTSCNQEVEKNHFDPSNQQSLSKPPTQQPAAPSPLWATDEFFSYSDLDCSNKKEQLDLGELDWLAEMGLFGDQPDQEALPVAEVPELSFSHLAHAHSYNRPMKSNVPNKKQRLEYRYDDEEEHFLVPDLG
MNHLKEVYIDIRDEIFDALDAASLVDVEPLELESQLKDSVNILIEKKQLQISSLKRLDLVKALLDELKGLGPLQALVDNDDISDIMINGPSDIFIEINGKVEKSPIQFVNEKQLNTIAKRIASNVGRRIDESKPLCDARLEDGSR
MATTPETMENHAFDADMSFESALENYLSSDFGDLEEGSIVKGEIVRLGDDYVLVDVNFKSEGQIAANEFRDANGDLIIGVGDRVDVFVVRKNEMEGTITLSYEKAKRMQLFDQLEEVQEKNGVIKGRIVRRIKGGYTVDLGGVEAFLPGSHVDLRPVPDMDALVNQEYEFRVLKINRRRSNVIVSRRVLLEEERDSKRQDLLRTLEEGQVVKGKAKNITEYGVFVDLGGLDGLLHITDMSWKRIRHPKELVSLGQELELKVLSFDRDSQKVSLGMKQLVADPWQDITAKFPEGLRGQGKVTNLVDYGAFVELEPGVEGLVHISEMSWTRKLRHPSQMVRVGDEVEVVILGVDPDKKRISLGMKQVKPNPWEVVAEKYPEGTILEGVIKNITEFGMFIGIEDGIDGLIHVSDISWTKKIRHPNEMYKVGDVVQAKVLTVDQENEKFTLGVKQLAEDPWSRVPATYPVGTLVTGSVTNITDFGLFVEVEEGIEGLVHVSEISQKKIKSPSEIYKEGQEIQAKVIHVSAEERRLGLSIKQLKDEEERRKPKEFRSGSPEVGGQTLGDILKLKLEEDAADNLEHHHHHH
KQKKMQAMIVTSKPYCVIKRIHRDLHRGVTCINDAEGTYNHEKKAVLITILTREEFSDFKYLMLKADPKAFVSVAENVHIIGRFVDDD
MIKKAFCMQVYPDQHAEYQRRHEKLWPEMRQMLKEHGAIKYQIFLNPETSTLFGYLEIEDEARWEQIALTPINQKWWNYMEDIMETNPDCSPMTAELKKVFEL
MAHHHHHHMLRGTRGFLAVSPGVGIAPETTPVKYTPMMLNIQNMMWWNGKRNLYRATYREKTWYEISRTGAFTKGRRPVMRQKYSREALQAALAMVPPGFEVADVPRPPQRILAQSEGIVGRWYSNYWTLHSMRYQCLLAGVEWPLGERQRPRTNYDEPFFFADFEESKAIQDYRSRWINVNRSLVGMTKRMKEAEEEARYMQFRKLQDTFWSNRKVLVNRVKSMYNQGARTSAKDMPIKTINIKAFLSE
MGSDKIHHHHHHVIGKLTLDQLRVLVAVADTGSFTAASQAVGRAQSAVSQMMAALENAQGVQLFDRSSYRPMLTEAGRVLVAQARTTLAGASRFEAMAEHMRSGVEAELALAIDPLVPSAPFMQGLRDLSARYPDLSVSFSTEGLGGSLRRLRDGSASLGICTLLPTVPDDVVAYPLLQTAMTPVVAGNHPLASQDGPLQRGDLEPHVQLVLSDPVEPSGPNYGLTSARLWRFADLNRRLDFLLGGFGWCRMPEHLVADALADGRLVALDIKNDNAPQDGLPIYAAHARDRALGPAGRWFLDAMRECMAAA
MGSDKIHHHHHHMKYREILEAAVRAPSGENCQPWRFVMEGDVIRIFNIPDQDTSLFNLHQRASYVAHGALLENLSIAAPAFGYAPDISLFPDSHVPNLVAAVRMTEGPSFDDSLYPYIPKRCTNRKRYNGGALSAAESQTLLSVAERVPGGKVALTGSVQDKAEVAEVNALNDRLVFENEHLHAFLFEHVRWSDAEARERGDGLDIKTLELAPPDSLAFPLLKSWPLVDFLKNFGVPRIIAGSARKLALSAAAIGVVSVPGKGDKDCIAAGRLIERVWLEATKLGLSFQLMTGITLLMRRVLDGETENISSQHGELIKKAYGTLANRFGVEDGSLFIMFRVGRCGPPSVYSMRYPIDKVIDAP
